Assay results: PMC4109916
Values belong to the molecule of their own block, whether it stands above or below them.

Key:
[1] = target: hIgG1-TAMRA (labeled human IgG1) (human); assay: flow cytometry on cells; same competition experiment as a5 (1 µM hIgG1-TAMRA, MDCK hFcRn-EYFP/hβ2m cells, 1 hr at 37°C, pH 6); pair of the soluble competitor mKate-IgGBP with the labeled hIgG1 that it binds
[2] = target: Human IgG1 (Avastin, bevacizumab) (human)
[3] = target: Human IgG1 (Avastin, bevacizumab) (human); assay: SPR; pH 6
[4] = target: Human IgG1 (Avastin, bevacizumab) (human); remark: listed apart in the source
[5] = target: Human IgG1 (Avastin, bevacizumab) (human); assay: SPR; pH 7.4
[6] = target: Recombinant Protein A (SpA) (staphylococcal (species not stated)) (UniProt P38507); assay: ELISA; competition: wells coated with mKate-IgGBP or SpA; 1:4000 dIgG-HRP co-incubated with increasing concentrations of unlabeled IgG, 1 hr at room temperature, 3% BSA in PBS-T; IC50 from a one-site LogIC50 fit
[7] = target: mKate-IgGBP (monomeric Katushka modified at its C-terminus with the IgG-Fc binding peptide); assay: as above
[8] = target: human neonatal Fc receptor hFcRn-EYFP/hβ2m on MDCK cells (human) (UniProt P55899); assay: flow cytometry on cells; competition: MDCK hFcRn-EYFP/hβ2m cells with 1 µM hIgG1-TAMRA and increasing unlabeled competitor, 1 hr at 37°C, pH 6 (HBSS, 1% ovalbumin, 50 mM MES); read-out is % hIgG1 accumulation (binding and FcRn-dependent endocytosis); pairs with the receptor on cells

IC50 [1]: 700 nM | plasma half-life of mKate-IgGBP (10 mg/kg i.v.) in hFcRn Tg mice pre-dosed with 500 mg/kg hIgG1 [2]: 8 h | Kd [3]: 19 nM | koff [3]: 0.0053 s⁻¹ | kon [3]: 270000 M⁻¹ s⁻¹ | fold extension of the plasma half-life of mKate-IgGBP co-dosed 1:1 mol with labeled hIgG1 in hFcRn Tg mice, against mKate-IgGBP dosed without hIgG1 [4]: 16 fold | Kd [5]: 40 nM | koff [5]: 0.0042 s⁻¹ | kon [5]: 110000 M⁻¹ s⁻¹
Molecule: mKate-IgGBP (monomeric Katushka modified at its C-terminus with the IgG-Fc binding peptide) (designed binder)

Molecule: mouse IgG2b (MPC-11 isotype control) (antibody)
IC50 [6]: 54 nM

Molecule: Human IgG1 (Avastin, bevacizumab) (antibody)
IC50 [6]: 22 nM

Molecule: mouse IgG2a (CI.18 isotype control) (antibody)
IC50 [6]: 61 nM

IC50 [7]: 2.4 nM | IC50 [8]: 2800 nM
B1: Human IgG1 (Avastin, bevacizumab) (antibody, V domains shown)
VH: EVQLVESGGGLVQPGGSLRLSCAASGYTFTNYGMNWVRQAPGKGLEWVGWINTYTGEPTYAADFKRRFTFSLDTSKSTAYLQMNSLRAEDTAVYYCAKYPHYYGSSHWYFDVWGQGTLVTVSS
VL: DIQMTQSPSSLSASVGDRVTITCSASQDISNYLNWYQQKPGKAPKVLIYFTSSLHSGVPSRFSGSGSGTDFTLTISSLQPEDFATYYCQQYSTVPWTFGQGTKVEIK
